For assay [1], the target named is T1, Human cathepsin B (human, UniProt P07858 80-333). The experiment in a line: reduction of the labeled cathepsin B band and in vitro cathepsin B cleavage assay. How it is done:
0.2 ng cathepsin B together with probe 5, z-VRPR-FMK, mepazine or CA-074 was incubated with 1 mM zRR-AMC substrate for 2 h at 30° C. Assay was performed in 0.1 M sodium acetate pH 5.5, 10 mM DTT and 0.1 mM EDTA. Again, increase of AMC fluorescence is measured in a Synergy 2 Microplate Reader (Biotek).
Importantly, MALT1 was the only inducible band in extracts labeled with probe 5, although some background signals were obtained. […] As expected, Caspase 8 activity was not affected by the diagnostic inhibitors of MALT1 of the present invention. […] In agreement with cross-reaction of the diagnostic MALT1 inhibitors of the present invention and cathepsin B, preincubation of CA-074Me in Jurkat T cells completely abolished detection of the ˜30 kDa signal while inducible MALT1 labeling was unaffected (FIG. 3D). Thus, tetrapeptides that target the active site of MALT1 are also binding to cathepsin B. Since serine (LRSR) or proline (VRPR) at the P2 position is already poorly tolerated by cysteine cathepsins, improvement of the peptide scaffold may be very difficult.

The target of assay [2] is T2, FLAG-MALT1 wt (MALT1 Isoform B, overexpressed in Jurkat T cells) (human, UniProt Q9UDY8 2-824).
T2 construct: also called overexpressed FLAG-MALT1 wt; not shown: N-terminal FLAG tag (or HA tag)
T2 sequence: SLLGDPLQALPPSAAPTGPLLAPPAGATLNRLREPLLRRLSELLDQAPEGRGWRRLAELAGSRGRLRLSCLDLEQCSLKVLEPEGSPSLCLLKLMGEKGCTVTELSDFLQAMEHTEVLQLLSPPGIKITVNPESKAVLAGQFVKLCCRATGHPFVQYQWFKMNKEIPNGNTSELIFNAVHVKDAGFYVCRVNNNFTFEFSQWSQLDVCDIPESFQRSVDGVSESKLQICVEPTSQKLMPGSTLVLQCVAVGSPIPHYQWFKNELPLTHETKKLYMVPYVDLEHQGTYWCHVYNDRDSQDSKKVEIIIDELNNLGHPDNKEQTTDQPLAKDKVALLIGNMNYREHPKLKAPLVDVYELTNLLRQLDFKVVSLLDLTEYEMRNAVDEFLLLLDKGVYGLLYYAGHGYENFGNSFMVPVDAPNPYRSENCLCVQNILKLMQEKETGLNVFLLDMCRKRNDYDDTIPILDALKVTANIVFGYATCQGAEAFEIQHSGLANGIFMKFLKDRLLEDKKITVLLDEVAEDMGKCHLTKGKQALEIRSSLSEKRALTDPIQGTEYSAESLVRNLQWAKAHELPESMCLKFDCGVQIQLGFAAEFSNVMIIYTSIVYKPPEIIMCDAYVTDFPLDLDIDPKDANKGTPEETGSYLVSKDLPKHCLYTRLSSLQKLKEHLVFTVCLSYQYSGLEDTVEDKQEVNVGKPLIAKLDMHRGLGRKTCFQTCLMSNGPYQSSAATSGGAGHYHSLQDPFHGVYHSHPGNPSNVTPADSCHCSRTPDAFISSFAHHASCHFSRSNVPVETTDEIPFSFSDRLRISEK
The experiment in a line: labeling after lysis and FLAG IP, in-gel fluorescence. On the procedure: (§1) Jurkat T cells, transfected with active FLAG-[…] wt or active site mutant C464A, were stained after lysis and IP with probe 2, pre-clicked to TAMRA. Analysis was done by fluorescence staining.
(§2) Cells were lysed in 500 μl co-IP buffer without protease inhibitors (25 mM hepes pH 7.5, 150 mM NaCl, 0.2% NP-40, 10% glycerol, 1 mM DTT, 10 mM sodium fluoride, 8 mM β-glycerophosphate and 300 μM sodium vanadate), centrifuged (14000 rpm, 10 min, 4° C.) and overexpressed FLAG MALT1 was immunoprecipitated by FLAG (M2) antibody for 3 hours at 4° C. PGS was added for 1 h at 4° C., precipitate was washed 2× with co-IP buffer and 1× with 50 mM hepes pH 7.4. Precipitated MALT1 was incubated with 0.3 μM pre-clicked probe 2 (in 20 μl 50 mM hepes pH 7.4) for 50 min at 29° C., mixed with 4× loading dye and boiled for 3 min. After protein separation by SDS PAGE, staining with diagnostic inhibitor was detected by Typhoon Fluorescence Scanner (FITC laser 488 nm/filter 526 SP; TAMRA laser 532 nm/filter 580 BP).

In assay [3] the target is T3, FLAG-MALT1 active site mutant C464A (C453A in Isoform B) (human, UniProt Q9UDY8 2-824).
T3 construct: Isoform B with C453A; also called MALT1 mutant; not shown: N-terminal FLAG tag (or HA tag)
T3 sequence: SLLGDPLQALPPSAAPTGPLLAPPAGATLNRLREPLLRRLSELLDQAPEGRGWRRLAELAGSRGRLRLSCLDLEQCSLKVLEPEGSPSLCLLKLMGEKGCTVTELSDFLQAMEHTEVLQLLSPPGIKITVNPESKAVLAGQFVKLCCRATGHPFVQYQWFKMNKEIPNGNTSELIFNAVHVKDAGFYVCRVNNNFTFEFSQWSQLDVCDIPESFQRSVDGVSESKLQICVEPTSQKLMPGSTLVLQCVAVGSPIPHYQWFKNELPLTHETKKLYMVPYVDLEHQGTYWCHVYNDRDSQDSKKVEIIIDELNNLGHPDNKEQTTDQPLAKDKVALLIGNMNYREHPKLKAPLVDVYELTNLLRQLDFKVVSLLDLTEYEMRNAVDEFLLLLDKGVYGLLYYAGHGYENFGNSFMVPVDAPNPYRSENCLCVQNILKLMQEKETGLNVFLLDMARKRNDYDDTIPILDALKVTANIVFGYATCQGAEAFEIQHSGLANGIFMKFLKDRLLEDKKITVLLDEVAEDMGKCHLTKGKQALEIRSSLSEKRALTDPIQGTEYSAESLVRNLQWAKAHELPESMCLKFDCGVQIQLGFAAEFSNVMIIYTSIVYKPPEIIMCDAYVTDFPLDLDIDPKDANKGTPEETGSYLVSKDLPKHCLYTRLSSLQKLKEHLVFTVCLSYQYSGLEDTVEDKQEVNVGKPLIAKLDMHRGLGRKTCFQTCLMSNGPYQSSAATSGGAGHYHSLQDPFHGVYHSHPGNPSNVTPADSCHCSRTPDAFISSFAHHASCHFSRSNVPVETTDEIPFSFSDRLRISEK
In words: labeling after FLAG IP, SDS PAGE, fluorescence scanning. How it is done: as §1, §2

Assay [4] deals with T1, Human cathepsin B. The experiment in a line: extracts of Jurkat T cells labeled with probe 5, in-gel fluorescence.
Assay [5] deals with T1, Human cathepsin B. The experiment in a line: Jurkat whole cell extract labeled with probe 5 or probe 6, fluorescent scanning. How it is done:
FIG. 6: Jurkat T cells were stimulated or not, lysed and whole cell extract was incubated with indicated concentrations of FITC conjugated probe 5 or BODIPY conjugated probe 6 and analyzed via fluorescent scanning. Probe 6 results in slightly higher active MALT1 labeling and cathepsin labeling (open circle) seems to be reduced.
Jurkat T cells (1-2×10⁷), primary human PBMCs or primary human T cells (0.25 or 1×10⁷) were lysed in 150 μl co-IP buffer without protease inhibitors. DLBCL (3×10⁷) were lysed in 250 μl buffer. After centrifugation (14000 rpm, 10 min, 4° C.), 100 μl extract (DLBCL: 200 μl) was stained with probe 5 or probe 6 (3 μM end) for 50 min at 29° C., mixed with 4× loading dye and boiled.

Primed or numbered codes have the meaning given here. The star is where a group is joined. AOMK(5) = C-terminal Arg as acyloxymethyl ketone (dimethyl benzoic acid leaving group), Cc1cccc(C)c1C(=O)OCC(=O)[C@H](CCCNC(=N)N)N*; AOMK(4) = acyloxymethyl ketone (C-terminal covalent warhead); BODIPY(FL) = CC1=CC(C)=[N+]2C1=Cc1ccc(CCC(=O)*)n1[B-]2(F)F; FITC = O=C1OC2(c3ccc(O)cc3Oc3cc(O)ccc32)c2ccc(NC(=S)*)cc21; Butanoyl(4-ethynyl) = C#CCCCC(=O)*

B1: z-VRPR-FMK (peptide)
peptide: VRPR
modifications: not fully specified; N-terminal z group; C-terminal Arg as fluoromethylketone (FMK)
notes: Bought (Alexis Biochemicals)
Consider B1, for which the binding result in the assay with Human cathepsin B [1] was “binds”.

B2: probe 2 (alkyne-LRSR-AOMK), pre-clicked to TAMRA (peptide)
peptide: {N‑TAMRA‑3‑aminopropylazide (click)-Butanoyl(4-ethynyl)}-LRSR-{AOMK(5)}
notes: Covalent activity-based probe; also called TAMRA-LRSR-AOMK
For B2, the figures for the binding result in assay [2] and in assay [3] were “binds” and “no binding (tested: 0.3 µM pre-clicked probe 2)”, respectively.

B3: probe 5 (FITC-LRSR-AOMK) (peptide)
peptide: {FITC}-LRSR-{AOMK(4)}
notes: Covalent activity-based probe; also called FITC conjugated probe 5
With B3, the binding result in the assay with Human cathepsin B [4] is “binds”.

B4: probe 6 ((BODIPY-FL)-LRSR-AOMK) (peptide)
peptide: {BODIPY(FL)}-LRSR-{AOMK(5)}
SMILES: CC1=CC(C)=[N+]2C1=Cc1ccc(CCC(=O)N[C@@H](CC(C)C)C(=O)N[C@@H](CCCNC(=N)N)C(=O)N[C@@H](CO)C(=O)N[C@@H](CCCNC(=N)N)C(=O)N[C@@H](CCCNC(=N)N)C(=O)COC(=O)c3c(C)cccc3C)n1[B-]2(F)F
notes: Covalent activity-based probe; also called BODIPY conjugated probe 6; BODIPY probe 6
As to B4, the binding result in the assay with Human cathepsin B [5] is reported as “binds”.

Source of the values: patent US20160327558A1 (HELMHOLTZ ZENTRUM M NCHEN DEUTSCHES FORSCHUNGSZENTRUM F R …, published 2016).
